± gives the standard error. For some assays here: Variants at the floor of the assay were thinned out.
B1: glmS ribozyme (parent)
chain: AUAAAAGCGCCAGAACUACAGAAAUGUAGUUGACGAGGAGGAGGUUUAUCGAAUUUUCGGCGGAUGCCUCCAAA

Tests used:
Details in all cases: with glucosamine-6-phosphate
glucosamine-6-phosphate [1] = variants of: B1; experiment: kcat; higher = faster cleavage; RNA array
Procedure, shortened: (§1)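 Glucosamine-6-phosphate in HEPES/KCl/Mg(OAc)2 buffer, at 40 μM to 10 mM, was flowed over barcoded ribozyme variants transcribed in situ by E. coli RNA polymerase on sequenced MiSeq chips. Tracking was through a hybridised Cy3 probe at 37 °C. kobs, kcat and KM came from exponential decay fits and weighted Michaelis–Menten fits of normalised per-tile medians.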

glucosamine-6-phosphate [2] = variants of: B1; experiment: self-cleavage kobs at 40 uM GlcN6P; higher = faster cleavage; RNA array
Procedure, shortened: as §1

glucosamine-6-phosphate [3] = variants of: B1; experiment: self-cleavage kobs at 640 uM GlcN6P; higher = faster cleavage; RNA array
Procedure, shortened: as §1

glucosamine-6-phosphate [4] = variants of: B1; experiment: self-cleavage kobs at 2500 uM GlcN6P; higher = faster cleavage; RNA array
Procedure, shortened: as §1

glucosamine-6-phosphate [5] = variants of: B1; experiment: self-cleavage kobs at 10000 uM GlcN6P; higher = faster cleavage; RNA array
Procedure, shortened: as §1

glucosamine-6-phosphate [6] = variants of: B1; experiment: self-cleavage kobs at 160 uM GlcN6P; higher = faster cleavage; RNA array
Procedure, shortened: as §1

glucosamine-6-phosphate [7] = variants of: B1; experiment: KM; higher = weaker cofactor use; RNA array
Procedure, shortened: as §1

Variant | kcat (glucosamine-6-phosphate [1]) | self-cleavage kobs at 40 uM GlcN6P (glucosamine-6-phosphate [2]) | self-cleavage kobs at 640 uM GlcN6P (glucosamine-6-phosphate [3]) | self-cleavage kobs at 2500 uM GlcN6P (glucosamine-6-phosphate [4]) | self-cleavage kobs at 10000 uM GlcN6P (glucosamine-6-phosphate [5]) | self-cleavage kobs at 160 uM GlcN6P (glucosamine-6-phosphate [6]) | KM (glucosamine-6-phosphate [7])
A15G C67A C71U | 0.000877 ± 0.00033 s⁻¹ | 7.86e-05 ± 1.3e-05 s⁻¹ | 0.000523 ± 0.00013 s⁻¹ | 0.000455 ± 0.00016 s⁻¹ | 0.00139 ± 0.00024 s⁻¹ | – | –
U30G U45C | 0.000451 ± 9.8e-05 s⁻¹ | – | 0.000201 ± 8.3e-05 s⁻¹ | 0.00024 ± 7.8e-05 s⁻¹ | 0.000435 ± 9.4e-05 s⁻¹ | – | –
G29A U56A | 0.00321 ± 0.0012 s⁻¹ | 4.94e-05 ± 9.7e-06 s⁻¹ | 0.000389 ± 7.9e-05 s⁻¹ | 0.000941 ± 0.00015 s⁻¹ | 0.00255 ± 0.00036 s⁻¹ | 0.000108 ± 2.2e-05 s⁻¹ | –
G29A C67A | 0.00104 ± 0.00036 s⁻¹ | 2.96e-05 ± 8.8e-06 s⁻¹ | 0.000205 ± 3.9e-05 s⁻¹ | 0.0005 ± 9.3e-05 s⁻¹ | 0.00099 ± 0.00013 s⁻¹ | 0.000165 ± 3.2e-05 s⁻¹ | –
A15U U45C | 0.000662 ± 6.5e-05 s⁻¹ | – | 6.91e-05 ± 1.5e-05 s⁻¹ | 0.000187 ± 4.3e-05 s⁻¹ | 0.000419 ± 4.9e-05 s⁻¹ | – | 5.87 ± 1 mM
A15U U45G | 0.000918 ± 0.00015 s⁻¹ | – | 0.000248 ± 3.2e-05 s⁻¹ | 0.000552 ± 8.4e-05 s⁻¹ | 0.000705 ± 9.6e-05 s⁻¹ | 5.29e-05 ± 1e-05 s⁻¹ | 2.15 ± 0.56 mM
U31A U47G | 0.00294 ± 0.0012 s⁻¹ | 7.57e-05 ± 1.9e-05 s⁻¹ | 0.00063 ± 0.00014 s⁻¹ | 0.00264 ± 0.00082 s⁻¹ | 0.00266 ± 0.00079 s⁻¹ | 0.000353 ± 7.9e-05 s⁻¹ | –

From the supplement of paper PMC7125110
